Results published in US20040202655A1.
Values joined by “and” are separate entries in the source; they are usually repeats but may differ in a detail not shown here. Equal entries are not always repeated.

Legend:
[1] = molecular target: human IGF-I receptor on cells (NIH-3T3 fibroblasts expressing the human IGF-IR; DU145 cells) (human) (UniProt P08069); test: competition with 125I-IGF-II, NIH-3T3 cells expressing human IGF-1R, 37 C
[2] = molecular target: human IGF-I receptor on cells (NIH-3T3 fibroblasts expressing the human IGF-IR; DU145 cells) (human) (UniProt P08069); test: cell-based or functional assay
[3] = molecular target: human IGF-I receptor on cells (NIH-3T3 fibroblasts expressing the human IGF-IR; DU145 cells) (human) (UniProt P08069); test: competition with 125I-IGF-I, NIH-3T3 cells expressing human IGF-1R, 37 C
[4] = molecular target: human IGF-I receptor on cells (NIH-3T3 fibroblasts expressing the human IGF-IR; DU145 cells) (human) (UniProt P08069); test: competition with 125I-IGF-I, NIH-3T3 cells expressing human IGF-1R, 4 C
[5] = molecular target: human IGF-I receptor on cells (NIH-3T3 fibroblasts expressing the human IGF-IR; DU145 cells) (human) (UniProt P08069); test: competition with 125I-IGF-II, NIH-3T3 cells expressing human IGF-1R, 4 C

Substance | IC50 [1] | IC50 (nM), IGF-1 dependent proliferation of NIH-3T3/hIGF-1R cells (BrdU ELISA) [2] | IC50 [3] | IC50 [4] | IC50 [5]
UPC-10 (#F-0528), IgG2a isotype control (antibody) | > 50 nM | > 70 nM | – | – | –
mouse anti-IGF-1R monoclonal antibody 24-57 (#MS-643-PABX, NeoMarkers) | 4 nM and 6.5 nM | – | 1.7 nM and 1.9 nM | 3 nM and 1.5 nM and 4 nM | 1 nM and 0.6 nM
MOPC-21 (#M-7894, Sigma), IgG1 isotype control (antibody) | > 50 nM | > 70 nM | > 50 nM | – | –
mouse anti-IGF-1R monoclonal antibody alpha IR3 (#GR11SP2, Oncogene Research Products) | > 50 nM | > 70 nM | 1.6 nM and 1.9 nM | 3.5 nM | –
